Broadly, the Kd is the free concentration of one partner at which half of the binding sites on the other are occupied at equilibrium, for simple one-to-one binding. Broadly, the koff is a measure of how fast the partners let go of each other. The kon is the second-order rate constant of association.

Kd, koff and kon data for one molecule are collected here from patent US20200377595A1.

The target in this assay is recombinant human CD3 (human). The experiment in a line: SPR, Ab captured by anti-Fc, 37 C. Background: SPR reads the build-up and loss of mass on a sensor chip optically.
Chain of recombinant human CD3 (human) (P07766 22-126, chain 1 of 2): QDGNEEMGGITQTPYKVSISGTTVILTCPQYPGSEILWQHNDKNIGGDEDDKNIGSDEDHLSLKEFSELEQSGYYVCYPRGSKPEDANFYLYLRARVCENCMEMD
Chain of recombinant human CD3 (human) (P04234 22-100, chain 2 of 2, further chain): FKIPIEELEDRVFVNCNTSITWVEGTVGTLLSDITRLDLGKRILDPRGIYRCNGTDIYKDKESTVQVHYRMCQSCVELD

B1: GPC3/CtrlxCD3 trispecific antibody (protein, part only; not given: control arm and constant regions, not shown: another chain or arm of the molecule; a dimerising Fc or GST)
VH 1: QVQLVESGGGLVQPGRSLRLSCAASGFTFSNAWMHWVRQAPGKGLEWVAQIKDRANSYNTYYAESVKGRFTISRDDSKNSIYLQMNSLKTEDTAVYYCRYVHYTTYAGSSFSYGVDAWGQGTTVTVSS
VL 1: DIVMTQSPLSLPVTPGEPASISCRSSQPLVHSNRNTYLHWYQQKPGQAPRLLIYKVSNRFSGVPDRFSGSGSGTDFTLKISRVEAEDVGVYYCGQGTQVPYTFGQGTKLEIK
VH 2: QVQLVQSGAEVKKPGASVTVSCKASGYTFTDYEMHWIRQPPGEGLEWIGAIDGPTPDTAYSEKFKGRVTLTADKSTSTAYMELSSLTSEDTAVYYCTRFYSYTYWGQGTLVTVSS
VL 2: DIVMTQSPLSLPVTPGEPASISCRSSQPLVHSNRNTYLHWYQQKPGQAPRLLIYKVSNRFSGVPDRFSGSGSGTDFTLKISRVEAEDVGVYYCGQGTQVPYTFGQGTKLEIK
For B1, the Kd came out at 17.8 nM, the koff was determined as 0.00151 s⁻¹ and the on-rate constant (kon) stood at 85000 M⁻¹ s⁻¹.
